Assay results taken from patent US20230329294A1 (CLARA FOODS, published 2023).

Target: bovine trypsin (bovine, UniProt P00760 24-246)
Assay: cell-based or functional assay

Sequence of bovine trypsin (P00760 24-246): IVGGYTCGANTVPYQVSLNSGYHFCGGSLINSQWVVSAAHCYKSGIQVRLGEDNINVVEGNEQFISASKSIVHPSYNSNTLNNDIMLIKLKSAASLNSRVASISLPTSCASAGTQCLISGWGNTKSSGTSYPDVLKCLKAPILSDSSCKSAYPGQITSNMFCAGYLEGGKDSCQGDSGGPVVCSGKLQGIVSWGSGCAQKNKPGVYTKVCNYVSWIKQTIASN

B1: native chicken ovomucoid (other)
chain: AEVDCSRFPNATDKEGKDVLVCNKDLRPICGTDGVTYTNDCLLCAYSIEFGTNISKEHDGECKETVPMNCSSYANTTSEDGKVMVLCNRAFNPVCGTDGVTYDNECLLCAHKVEQGASVDKRHDGGCRKELAAVSVDCSEYPKPDCTAEDRPLCGSDNKTYGNKCNFCNAVVESNGTLTLSHFGKC
modifications: complex branched N-linked glycosylation (that includes mannose)
Work on B1 yielded a Trypsin inhibition activity of 13700 TIU/g.
